From publication PMC8782820

Experiments:
[1] = molecular target: hepcidin-imprinted silk fibroin (SilMA) nanoparticles, bioMIPs (Bombyx mori); test: other fluorescence titration; 37.5 μg of bioMIPs or non-imprinted SF-NPs per well incubated with hepfitc 3 nM–2.5 μM in PBS 10 mM pH 7.4 with 0.08% Tween-20, read at 30 min; Langmuir fit; apparent
[2] = molecular target: hepcidin-imprinted silk fibroin (SilMA) nanoparticles, bioMIPs (Bombyx mori); test: competitive fluorescence assay; bioMIPs incubated with hepfitc (500 pmol) alone or with one competitor (hepcidin; angiotensin, cytochrome c or human serum albumin 6 nmol); bound hepfitc at 30 min; triplicate
[3] = molecular target: hepcidin-imprinted silk fibroin (SilMA) nanoparticles, bioMIPs (Bombyx mori); test: competitive fluorescence assay; 30 μg/well of bioMIPs with hepcidin-depleted pooled serum (10 μL in 150 μL PBS 10 mM pH 7.4, 0.08% Tween-20), hepfitc 500 or 250 pmol, hepcidin competitor 0.11, 0.34, 0.68, 2.70 μM; displacement from ≥ 120 min of incubation; Hill fit
[4] = molecular target: hepcidin-imprinted silk fibroin (SilMA) nanoparticles, bioMIPs (Bombyx mori); test: ITC; hepcidin 28 μM (syringe, 50 μL) titrated into bioMIP or control SF-NPs 2.5 μM (220 μL) in 50 mM PBS pH 7.4, 25 °C, 16 injections of 3 μL; independent site model; triplicate

fluorescent hepcidin (hepfitc) (peptide)
Kd [1]: 1670 nM
imprinting factor (hepfitc bound to the bioMIP with respect to that bound to the NIP) [1]: 2
hepfitc bound at 30 min [2]: 125 pmol

Hepcidin-25 (from UniProt P81172 60-84) (peptide)
Ka [3]: 2.41e+06 M⁻¹
Kd [3]: 410 nM
Kd [4]: 360 nM
dH [4]: -14 kcal/mol
stoichiometry N [4]: 2.1
